Activity (% decrease in luciferase) and Positive clones data for 22 molecules are collected here from patent US20230002732A1.

First the molecules themselves.
B1: ZMYM5 (protein, UniProt Q9UJ78 1-669, looked up)
chain: MEKCSVGGLELTEQTPALLGNMAMATSLMDIGDSFGHPACPLVSRSRNSPVEDDDDDDDVVFIESIQPPSISAPAIADQRNFIFASSKNEKPQGNYSVIPPSSRDLASQKGNISETIVIDDEEDIETNGGAEKKSSCFIEWGLPGTKNKTNDLDFSTSSLSRSKTKTGVRPFNPGRMNVAGDLFQNGEFATHHSPDSWISQSASFPSNQKQPGVDSLSPVALLRKQNFQPTAQQQLTKPAKITCANCKKPLQKGQTAYQRKGSAHLFCSTTCLSSFSHKRTQNTRSIICKKDASTKKANVILPVESSKSFQEFYSTSCLSPCENNWNLKKGVFNKSRCTICSKLAEIRHEVSVNNVTHKLCSNHCFNKYRLANGLIMNCCEHCGEYMPSKSTGNNILVIGGQQKRFCCQSCINEYKQMMETKSKKLTASENRKRNAFREENEKQLYGSSNTLLKKIEGIPEKKEKTSQLQLSVECGTDTLLIQENVNLPPSSTSTIADTFQEQLEEKNFEDSIVPVVLSADPGTWPRILNIKQRDTLVENVPPQVRNFNFPKDNTGRKFSETYYTRILPNGEKTTRSWLLYSTSKDSVFCLYCKLFGEGKNQLKNENGCKDWQHLSHILSKHEESEMHVNNSVKYSKLKSDLKKNKAIDAAEHRLYENEKNDGVLLLYT
B2: PIAS3 (enzyme, UniProt Q9Y6X2 1-628, looked up)
chain: MAELGELKHMVMSFRVSELQVLLGFAGRNKSGRKHELLAKALHLLKSSCAPSVQMKIKELYRRRFPRKTLGPSDLSLLSLPPGTSPVGSPGPLAPIPPTLLAPGTLLGPKREVDMHPPLPQPVHPDVTMKPLPFYEVYGELIRPTTLASTSSQRFEEAHFTFALTPQQVQQILTSREVLPGAKCDYTIQVQLRFCLCETSCPQEDYFPPNLFVKVNGKLCPLPGYLPPTKNGAEPKRPSRPINITPLARLSATVPNTIVVNWSSEFGRNYSLSVYLVRQLTAGTLLQKLRAKGIRNPDHSRALIKEKLTADPDSEVATTSLRVSLMCPLGKMRLTVPCRALTCAHLQSFDAALYLQMNEKKPTWTCPVCDKKAPYESLIIDGLFMEILSSCSDCDEIQFMEDGSWCPMKPKKEASEVCPPPGYGLDGLQYSPVQGGDPSENKKKVEVIDLTIESSSDEEDLPPTKKHCSVTSAAIPALPGSKGVLTSGHQPSSVLRSPAMGTLGGDFLSSLPLHEYPPAFPLGADIQGLDLFSFLQTESQHYGPSVITSLDEQDALGHFFQYRGTPSHFLGPLAPTLGSSHCSATPAPPPGRVSSIVAPGGALREGHGGPLPSGPSLTGCRSDIISLD
B3: C18orf25 (protein, UniProt Q96B23 1-404, looked up)
chain: MKMEEAVGKVEELIESEAPPKASEQETAKEEDGSVELESQVQKDGVADSTVISSMPCLLMELRRDSSESQLASTESDKPTTGRVYESDSSNHCMLSPSSSGHLADSDTLSSAEENEPSQAETAVEGDPSGVSGATVGRKSRRSRSESETSTMAAKKNRQSSDKQNGRVAKVKGHRSQKHKERIRLLRQKREAAARKKYNLLQDSSTSDSDLTCDSSTSSSDDDEEVSGSSKTITAEIPDGPPVVAHYDMSDTNSDPEVVNVDNLLAAAVVQEHSNSVGGQDTGATWRTSGLLEELNAEAGHLDPGFLASDKTSAGNAPLNEEINIASSDSEVEIVGVQEHARCVHPRGGVIQSVSSWKHGSGTQYVSTRQTQSWTAVTPQQTWASPAEVVDLTLDEDSRRKYLL
B4: ZNF198 (protein, UniProt Q9UBW7 1-1377, looked up)
chain: MDTSSVGGLELTDQTPVLLGSTAMATSLTNVGNSFSGPANPLVSRSNKFQNSSVEDDDDVVFIEPVQPPPPSVPVVADQRTITFTSSKNEELQGNDSKITPSSKELASQKGSVSETIVIDDEEDMETNQGQEKNSSNFIERRPPETKNRTNDVDFSTSSFSRSKVNAGMGNSGITTEPDSEIQIANVTTLETGVSSVNDGQLENTDGRDMNLMITHVTSLQNTNLGDVSNGLQSSNFGVNIQTYTPSLTSQTKTGVGPFNPGRMNVAGDVFQNGESATHHNPDSWISQSASFPRNQKQPGVDSLSPVASLPKQIFQPSVQQQPTKPVKVTCANCKKPLQKGQTAYQRKGSAHLFCSTTCLSSFSHKPAPKKLCVMCKKDITTMKGTIVAQVDSSESFQEFCSTSCLSLYEDKQNPTKGALNKSRCTICGKLTEIRHEVSFKNMTHKLCSDHCFNRYRMANGLIMNCCEQCGEYLPSKGAGNNVLVIDGQQKRFCCQSCVSEYKQVGSHPSFLKEVRDHMQDSFLMQPEKYGKLTTCTGCRTQCRFFDMTQCIGPNGYMEPYCSTACMNSHKTKYAKSQSLGIICHFCKRNSLPQYQATMPDGKLYNFCNSSCVAKFQALSMQSSPNGQFVAPSDIQLKCNYCKNSFCSKPEILEWENKVHQFCSKTCSDDYKKLHCIVTYCEYCQEEKTLHETVNFSGVKRPFCSEGCKLLYKQDFARRLGLRCVTCNYCSQLCKKGATKELDGVVRDFCSEDCCKKFQDWYYKAARCDCCKSQGTLKERVQWRGEMKHFCDQHCLLRFYCQQNEPNMTTQKGPENLHYDQGCQTSRTKMTGSAPPPSPTPNKEMKNKAVLCKPLTMTKATYCKPHMQTKSCQTDDTWRTEYVPVPIPVPVYIPVPMHMYSQNIPVPTTVPVPVPVPVFLPAPLDSSEKIPAAIEELKSKVSSDALDTELLTMTDMMSEDEGKTETTNINSVIIETDIIGSDLLKNSDPETQSSMPDVPYEPDLDIEIDFPRAAEELDMENEFLLPPVFGEEYEEQPRPRSKKKGAKRKAVSGYQSHDDSSDNSECSFPFKYTYGVNAWKHWVKTRQLDEDLLVLDELKSSKSVKLKEDLLSHTTAELNYGLAHFVNEIRRPNGENYAPDSIYYLCLGIQEYLCGSNRKDNIFIDPGYQTFEQELNKILRSWQPSILPDGSIFSRVEEDYLWRIKQLGSHSPVALLNTLFYFNTKYFGLKTVEQHLRLSFGTVFRHWKKNPLTMENKACLRYQVSSLCGTDNEDKITTGKRKHEDDEPVFEQIENTANPSRCPVKMFECYLSKSPQNLNQRMDVFYLQPECSSSTDSPVWYTSTSLDRNTLENMLVRVLLVKDIYDKDNYELDEDTD
B5: RNF111 (enzyme, UniProt Q6ZNA4 1-994, looked up)
chain: MSQWTPEYNELYTLKVDMKSEIPSDAPKTQESLKGILLHPEPIGAAKSFPAGVEMINSKVGNEFSHLCDDSQKQEKEMNGNQQEQEKSLVVRKKRKSQQAGPSYVQNCVKENQGILGLRQHLGTPSDEDNDSSFSDCLSSPSSSLHFGDSDTVTSDEDKEVSVRHSQTILNAKSRSHSARSHKWPRTETESVSGLLMKRPCLHGSSLRRLPCRKRFVKNNSSQRTQKQKERILMQRKKREVLARRKYALLPSSSSSSENDLSSESSSSSSTEGEEDLFVSASENHQNNPAVPSGSIDEDVVVIEASSTPQVTANEEINVTSTDSEVEIVTVGESYRSRSTLGHSRSHWSQGSSSHASRPQEPRNRSRISTVIQPLRQNAAEVVDLTVDEDEPTVVPTTSARMESQATSASINNSNPSTSEQASDTASAVTSSQPSTVSETSATLTSNSTTGTSIGDDSRRTTSSAVTETGPPAMPRLPSCCPQHSPCGGSSQNHHALGHPHTSCFQQHGHHFQHHHHHHHTPHPAVPVSPSFSDPACPVERPPQVQAPCGANSSSGTSYHEQQALPVDLSNSGIRSHGSGSFHGASAFDPCCPVSSSRAAIFGHQAAAAAPSQPLSSIDGYGSSMVAQPQPQPPPQPSLSSCRHYMPPPYASLTRPLHHQASACPHSHGNPPPQTQPPPQVDYVIPHPVHAFHSQISSHATSHPVAPPPPTHLASTAAPIPQHLPPTHQPISHHIPATAPPAQRLHPHEVMQRMEVQRRRMMQHPTRAHERPPPHPHRMHPNYGHGHHIHVPQTMSSHPRQAPERSAWELGIEAGVTAATYTPGALHPHLAHYHAPPRLHHLQLGALPLMVPDMAGYPHIRYISSGLDGTSFRGPFRGNFEELIHLEERLGNVNRGASQGTIERCTYPHKYKKVTTDWFSQRKLHCKQDGEEGTEEDTEEKCTICLSILEEGEDVRRLPCMHLFHQVCVDQWLITNKKCPICRVDIEAQLPSES
B6: ZBTB16 (protein, UniProt Q05516 1-673, looked up)
chain: MDLTKMGMIQLQNPSHPTGLLCKANQMRLAGTLCDVVIMVDSQEFHAHRTVLACTSKMFEILFHRNSQHYTLDFLSPKTFQQILEYAYTATLQAKAEDLDDLLYAAEILEIEYLEEQCLKMLETIQASDDNDTEATMADGGAEEEEDRKARYLKNIFISKHSSEESGYASVAGQSLPGPMVDQSPSVSTSFGLSAMSPTKAAVDSLMTIGQSLLQGTLQPPAGPEEPTLAGGGRHPGVAEVKTEMMQVDEVPSQDSPGAAESSISGGMGDKVEERGKEGPGTPTRSSVITSARELHYGREESAEQVPPPAEAGQAPTGRPEHPAPPPEKHLGIYSVLPNHKADAVLSMPSSVTSGLHVQPALAVSMDFSTYGGLLPQGFIQRELFSKLGELAVGMKSESRTIGEQCSVCGVELPDNEAVEQHRKLHSGMKTYGCELCGKRFLDSLRLRMHLLAHSAGAKAFVCDQCGAQFSKEDALETHRQTHTGTDMAVFCLLCGKRFQAQSALQQHMEVHAGVRSYICSECNRTFPSHTALKRHLRSHTGDHPYECEFCGSCFRDESTLKSHKRIHTGEKPYECNGCGKKFSLKHQLETHYRVHTGEKPFECKLCHQRSRDYSAMIKHLRTHNGASPYQCTICTEYCPSLSSMQKHMKGHKPEEIPPDWRIEKTYLYLCYV

The test system of the first data set is E4bp4 (NFIL3), wild type. Put plainly: cell_activity. To be noted: 3T3 cells, 48 h; transcriptional repression.
In turn, “pGL3-E4bp4-CS reporter with three E4bp4 consensus binding sites” showed an activity (% decrease in luciferase) of 50.

A further data set has as its target E4bp4. Put plainly: yeast-two-hybrid screen, E4bp4 as bait.
Settings: not given
On to “RANBP2 (from UniProt P49792 1-3224) (enzyme)”, for which the Positive clones was 1 clones.

Regarding PIAS1 (from UniProt O75925 2-651), the Positive clones stood at 20 clones.

The molecule SNRP70 (from UniProt P08621 2-437) had a Positive clones of 2 clones.

“SETX (from UniProt Q7Z333 1-2677) (enzyme)” registered a Positive clones of 2 clones.

“U5-200KD (from UniProt O75643 1-2136) (enzyme)” returned a Positive clones of 1 clones.

In turn, FLJ13057 showed a Positive clones of 5 clones.

FLNA (from UniProt P21333 2-2647) had a Positive clones of 1 clones.

In turn, “TLK2 (from UniProt Q86UE8 1-772) (enzyme)” returned a Positive clones of 2 clones.

In turn, “HIPK3 (from UniProt Q9H422 1-1215) (enzyme)” came in with a Positive clones of 5 clones.

In turn, ZNF237 displayed a Positive clones of 5 clones.

Regarding “HIPK1 (from UniProt Q86Z02 1-1210) (enzyme)”, the Positive clones worked out at 1 clones.

In the case of CHD1 (from UniProt O14646 1-1710), the Positive clones worked out at 1 clones.

Regarding “SORL1 (from UniProt Q92673 82-2214) (receptor)”, the Positive clones amounted to 1 clones.

For FLJ544447, the Positive clones amounted to 1 clones.

DSP (from UniProt P15924 1-2871) returned a Positive clones of 2 clones.

B1 displayed a Positive clones of 5 clones.

With B2, the Positive clones turned out to be 2 clones.

As for B3, the Positive clones came to 1 clones.

Molecule B4 displayed a Positive clones of 5 clones.

On to B5, for which the Positive clones is 1 clones.

B6 showed a Positive clones of 1 clones.
